In patent US20190010237A1 (AbbVie / Abbott, published 2019):
One block for each binder: values may come before it.

Columns and labels:
[1] = molecular target: T1, Human PRLR expressed on HEK-293 cells (human, UniProt P16471 25-622); experiment: FACS titration on PRLR-expressing HEK-293 cells (293hPRLR), MFI against Ab (nM)
T1 construct: also called PRLR-expressing HEK-293 cells; HEK293/Human PRLR
T1 sequence: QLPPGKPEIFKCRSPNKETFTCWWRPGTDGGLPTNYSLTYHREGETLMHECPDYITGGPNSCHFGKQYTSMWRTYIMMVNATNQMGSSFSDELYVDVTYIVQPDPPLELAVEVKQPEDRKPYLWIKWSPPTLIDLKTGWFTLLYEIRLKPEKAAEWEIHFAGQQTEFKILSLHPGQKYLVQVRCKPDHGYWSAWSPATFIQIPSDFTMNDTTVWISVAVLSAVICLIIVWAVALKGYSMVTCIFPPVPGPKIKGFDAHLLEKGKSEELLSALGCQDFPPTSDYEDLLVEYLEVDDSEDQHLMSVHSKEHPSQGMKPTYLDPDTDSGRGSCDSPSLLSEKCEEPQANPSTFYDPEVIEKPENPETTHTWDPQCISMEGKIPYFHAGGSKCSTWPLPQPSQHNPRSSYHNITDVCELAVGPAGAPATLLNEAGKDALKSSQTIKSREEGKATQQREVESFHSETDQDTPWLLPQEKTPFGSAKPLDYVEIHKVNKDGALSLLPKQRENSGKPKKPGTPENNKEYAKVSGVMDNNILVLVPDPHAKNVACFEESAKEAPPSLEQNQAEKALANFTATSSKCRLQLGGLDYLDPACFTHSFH

[2] = molecular target: T2, PRLR (prolactin receptor, as named in the kinetics and crystallography paragraph) (UniProt P16471 25-234, limits assumed); experiment: kinetic measurement, method not named
T2 construct: The paragraph says only 'PRLR'
T2 sequence (looked up): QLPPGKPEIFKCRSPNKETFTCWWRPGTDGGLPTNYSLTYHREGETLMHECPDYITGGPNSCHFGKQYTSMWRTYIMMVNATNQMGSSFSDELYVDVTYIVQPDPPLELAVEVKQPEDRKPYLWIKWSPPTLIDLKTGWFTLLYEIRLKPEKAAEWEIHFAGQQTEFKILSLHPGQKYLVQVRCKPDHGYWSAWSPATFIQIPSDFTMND

EC50 [1]: 0.29 nM | Kd [2]: 0.46 nM | koff [2]: 0.000623 s⁻¹
B1: h16f humanized anti-PRLR antibody (antibody, human IgG1, kappa)
heavy: not shown
light: DIQMTQSPSSVSASVGDRVTITCKASQYVGTAVAWYQQKPGKSPKLLIYSASNRYTGVPSRFSDSGSGTDFTLTISSLQPEDFATYFCQQYSSYPWTFGGGTKVEIKRTVAAPSVFIFPPSDEQLKSGTASVVCLLNNFYPREAKVQWKVDNALQSGNSQESVTEQDSKDSTYSLSSTLTLSKADYEKHKVYACEVTHQGLSSPVTKSFNRGEC
notes: Humanized IgG1; also called antibody h16f; parental h16f

Kd [2]: 1.3 nM | koff [2]: 0.0011 s⁻¹
B2: anti-PRLR antibody LFA-102 (Novartis) (antibody, V domains shown)
VH: EVQLVESGGGLVQPGGSLRLSCAVSGFTFSSYGMSWVRQAPGKRLEWVATVSSGGTYTYYPDSVKGRFTISRDNSKNTLYLQMNSLRAEDTAMYYCARHRGNYYATYYYAMDYWGQGTLVTVSS
VL: DIVLTQSPDSLAVSLGERATINCKASKSVSTSGYTYMHWYQQKPGQPPKLLIYLASNRESGVPDRFSGSGSGTDFTLTISPVQAEDVATYYCQHSGELPPSFGQGTKLEIKR

EC50 [1]: 0.5 nM
B3: h16e anti-PRLR antibody (antibody, human IgG1, kappa)
heavy: not shown
light: DIQMTQSPSSLSASVGDRVTITCRASENIYSYLAWYQQKPGKPPKLLVYNAKTLAEGVPSRFSGSGSGTDFTLTISSLQPEDFATYYCQHHYATPFTFGQGTKLEIKRTVAAPSVFIFPPSDEQLKSGTASVVCLLNNFYPREAKVQWKVDNALQSGNSQESVTEQDSKDSTYSLSSTLTLSKADYEKHKVYACEVTHQGLSSPVTKSFNRGEC
